B1: DDC (protein, UniProt P20711 1-480, looked up)
Aromatic-L-amino-acid …: MNASEFRRRGKEMVDYMANYMEGIEGRQVYPDVEPGYLRPLIPAAAPQEPDTFEDIINDVEKIIMPGVTHWHSPYFFAYFPTASSYPAMLADMLCGAIGCIGFSWAASPACTELETVMMDWLGKMLELPKAFLNEKAGEGGGVIQGSASEATLVALLAARTKVIHRLQAASPELTQAAIMEKLVAYSSDQAHSSVERAGLIGGVKLKAIPSDGNFAMRASALQEALERDKAAGLIPFFMVATLGTTTCCSFDNLLEVGPICNKEDIWLHVDAAYAGSAFICPEFRHLLNGVEFADSFNFNPHKWLLVNFDCSAMWVKKRTDLTGAFRLDPTYLKHSHQDSGLITDYRHWQIPLGRRFRSLKMWFVFRMYGVKGLQAYIRKHVQLSHEFESLVRQDPRFEICVEVILGLVCFRLKGSNKVNEALLQRINSAKKIHLVPCHLRDKFVLRFAICSRTVESAHVQRAWEHIKELAADVLRAERE
B2: ROBO2 (protein, UniProt Q9HCK4 22-1378, looked up)
Roundabout homolog 2: SRLRQEDFPPRIVEHPSDVIVSKGEPTTLNCKAEGRPTPTIEWYKDGERVETDKDDPRSHRMLLPSGSLFFLRIVHGRRSKPDEGSYVCVARNYLGEAVSRNASLEVALLRDDFRQNPTDVVVAAGEPAILECQPPRGHPEPTIYWKKDKVRIDDKEERISIRGGKLMISNTRKSDAGMYTCVGTNMVGERDSDPAELTVFERPTFLRRPINQVVLEEEAVEFRCQVQGDPQPTVRWKKDDADLPRGRYDIKDDYTLRIKKTMSTDEGTYMCIAENRVGKMEASATLTVRAPPQFVVRPRDQIVAQGRTVTFPCETKGNPQPAVFWQKEGSQNLLFPNQPQQPNSRCSVSPTGDLTITNIQRSDAGYYICQALTVAGSILAKAQLEVTDVLTDRPPPIILQGPANQTLAVDGTALLKCKATGDPLPVISWLKEGFTFPGRDPRATIQEQGTLQIKNLRISDTGTYTCVATSSSGETSWSAVLDVTESGATISKNYDLSDLPGPPSKPQVTDVTKNSVTLSWQPGTPGTLPASAYIIEAFSQSVSNSWQTVANHVKTTLYTVRGLRPNTIYLFMVRAINPQGLSDPSPMSDPVRTQDISPPAQGVDHRQVQKELGDVLVRLHNPVVLTPTTVQVTWTVDRQPQFIQGYRVMYRQTSGLQATSSWQNLDAKVPTERSAVLVNLKKGVTYEIKVRPYFNEFQGMDSESKTVRTTEEAPSAPPQSVTVLTVGSYNSTSISVSWDPPPPDHQNGIIQEYKIWCLGNETRFHINKTVDAAIRSVIIGGLFPGIQYRVEVAASTSAGVGVKSEPQPIIIGRRNEVVITENNNSITEQITDVVKQPAFIAGIGGACWVILMGFSIWLYWRRKKRKGLSNYAVTFQRGDGGLMSNGSRPGLLNAGDPSYPWLADSWPATSLPVNNSNSGPNEIGNFGRGDVLPPVPGQGDKTATMLSDGAIYSSIDFTTKTSYNSSSQITQATPYATTQILHSNSIHELAVDLPDPQWKSSIQQKTDLMGFGYSLPDQNKGNNGGKGGKKKKNKNSSKPQKNNGSTWANVPLPPPPVQPLPGTELEHYAVEQQENGYDSDSWCPPLPVQTYLHQGLEDELEEDDDRVPTPPVRGVASSPAISFGQQSTATLTPSPREEMQPMLQAHLDELTRAYQFDIAKQTWHIQSNNQPPQPPVPPLGYVSGALISDLETDVADDDADDEEEALEIPRPLRALDQTPGSSMDNLDSSVTGKAFTSSQRPRPTSPFSTDSNTSAALSQSQRPRPTKKHKGGRMDQQPALPHRREGMTDEEALVPYSKPSFPSPGGHSSSGTASSKGSTGPRKTEVLRAGHQRNASDLLDIGYMGSNSQGQFTGEL
B3: CA12 (protein, UniProt O43570 25-354, looked up)
Carbonic anhydrase 12: APVNGSKWTYFGPDGENSWSKKYPSCGGLLQSPIDLHSDILQYDASLTPLEFQGYNLSANKQFLLTNNGHSVKLNLPSDMHIQGLQSRYSATQLHLHWGNPNDPHGSEHTVSGQHFAAELHIVHYNSDLYPDASTASNKSEGLAVLAVLIEMGSFNPSYDKIFSHLQHVKYKGQEAFVPGFNIEELLPERTAEYYRYRGSLTTPPCNPTVLWTVFRNPVQISQEQLLALETALYCTHMDDPSPREMINNFRQVQKFDERLVYTSFSQVQVCTAAGLSLGIILSLALAGILGICIVVVVSIWLFRRKSIKKGDNKGVIYKPATKMETEAHA
B4: SMAD1 (protein, UniProt Q15797 1-465, looked up)
Mothers against …: MNVTSLFSFTSPAVKRLLGWKQGDEEEKWAEKAVDALVKKLKKKKGAMEELEKALSCPGQPSNCVTIPRSLDGRLQVSHRKGLPHVIYCRVWRWPDLQSHHELKPLECCEFPFGSKQKEVCINPYHYKRVESPVLPPVLVPRHSEYNPQHSLLAQFRNLGQNEPHMPLNATFPDSFQQPNSHPFPHSPNSSYPNSPGSSSSTYPHSPTSSDPGSPFQMPADTPPPAYLPPEDPMTQDGSQPMDTNMMAPPLPSEINRGDVQAVAYEEPKHWCSIVYYELNNRVGEAFHASSTSVLVDGFTDPSNNKNRFCLGLLSNVNRNSTIENTRRHIGKGVHLYYVGGEVYAECLSDSSIFVQSRNCNYHHGFHPTTVCKIPSGCSLKIFNNQEFAQLLAQSVNHGFETVYELTKMCTIRMSFVKGWGAEYHRQDVTSTPCWIEIHLHGPLQWLDKVLTQMGSPHNPISSVS
B5: DDX58 (protein, UniProt O95786 1-925, looked up)
Antiviral innate immune …: MTTEQRRSLQAFQDYIRKTLDPTYILSYMAPWFREEEVQYIQAEKNNKGPMEAATLFLKFLLELQEEGWFRGFLDALDHAGYSGLYEAIESWDFKKIEKLEEYRLLLKRLQPEFKTRIIPTDIISDLSECLINQECEEILQICSTKGMMAGAEKLVECLLRSDKENWPKTLKLALEKERNKFSELWIVEKGIKDVETEDLEDKMETSDIQIFYQEDPECQNLSENSCPPSEVSDTNLYSPFKPRNYQLELALPAMKGKNTIICAPTGCGKTFVSLLICEHHLKKFPQGQKGKVVFFANQIPVYEQQKSVFSKYFERHGYRVTGISGATAENVPVEQIVENNDIIILTPQILVNNLKKGTIPSLSIFTLMIFDECHNTSKQHPYNMIMFNYLDQKLGGSSGPLPQVIGLTASVGVGDAKNTDEALDYICKLCASLDASVIATVKHNLEELEQVVYKPQKFFRKVESRISDKFKYIIAQLMRDTESLAKRICKDLENLSQIQNREFGTQKYEQWIVTVQKACMVFQMPDKDEESRICKALFLYTSHLRKYNDALIISEHARMKDALDYLKDFFSNVRAAGFDEIEQDLTQRFEEKLQELESVSRDPSNENPKLEDLCFILQEEYHLNPETITILFVKTRALVDALKNWIEGNPKLSFLKPGILTGRGKTNQNTGMTLPAQKCILDAFKASGDHNILIATSVADEGIDIAQCNLVILYEYVGNVIKMIQTRGRGRARGSKCFLLTSNAGVIEKEQINMYKEKMMNDSILRLQTWDEAVFREKILHIQTHEKFIRDSQEKPKPVPDKENKKLLCRKCKALACYTADVRVIEECHYTVLGDAFKECFVSRPHPKPKQFSSFEKRAKIFCARQNCSHDWGIHVKYKTFEIPVIKIESFVVEDIATGVQTLYSKWKDFHFEKIPFDPAEMSK
B6: LAIR-2 (protein, UniProt Q6ISS4 22-152, looked up)
Leukocyte-associated …: QEGALPRPSISAEPGTVISPGSHVTFMCRGPVGVQTFRLEREDRAKYKDSYNVFRLGPSESEARFHIDSVSEGNAGLYRCLYYKPPGWSEHSDFLELLVKESSGGPDSPDTEPGSSAGTVPGTEASGFDAP
B7: EDIL3 (protein, UniProt O43854 24-480, looked up)
EGF-like repeat and discoidin …: DICDPNPCENGGICLPGLADGSFSCECPDGFTDPNCSSVVEVASDEEEPTSAGPCTPNPCHNGGTCEISEAYRGDTFIGYVCKCPRGFNGIHCQHNINECEVEPCKNGGICTDLVANYSCECPGEFMGRNCQYKCSGPLGIEGGIISNQQITASSTHRALFGLQKWYPYYARLNKKGLINAWTAAENDRWPWIQINLQRKMRVTGVITQGAKRIGSPEYIKSYKIAYSNDGKTWAMYKVKGTNEDMVFRGNIDNNTPYANSFTPPIKAQYVRLYPQVCRRHCTLRMELLGCELSGCSEPLGMKSGHIQDYQITASSIFRTLNMDMFTWEPRKARLDKQGKVNAWTSGHNDQSQWLQVDLLVPTKVTGIITQGAKDFGHVQFVGSYKLAYSNDGEHWTVYQDEKQRKDKVFQGNFDNDTHRKNVIDPPIYARHIRILPWSWYGRITLRSELLGCTEEE
B8: TRAF2 (protein, UniProt Q12933 2-501, looked up)
TNF receptor-associated …: AAASVTPPGSLELLQPGFSKTLLGTKLEAKYLCSACRNVLRRPFQAQCGHRYCSFCLASILSSGPQNCAACVHEGIYEEGISILESSSAFPDNAARREVESLPAVCPSDGCTWKGTLKEYESCHEGRCPLMLTECPACKGLVRLGEKERHLEHECPERSLSCRHCRAPCCGADVKAHHEVCPKFPLTCDGCGKKKIPREKFQDHVKTCGKCRVPCRFHAIGCLETVEGEKQQEHEVQWLREHLAMLLSSVLEAKPLLGDQSHAGSELLQRCESLEKKTATFENIVCVLNREVERVAMTAEACSRQHRLDQDKIEALSSKVQQLERSIGLKDLAMADLEQKVLEMEASTYDGVFIWKISDFARKRQEAVAGRIPAIFSPAFYTSRYGYKMCLRIYLNGDGTGRGTHLSLFFVVMKGPNDALLRWPFNQKVTLMLLDQNNREHVIDAFRPDVTSSSFQRPVNDMNIASGCPLFCPVSKMEAKNSYVRDDAIFIKAIVDLTGL
B9: XPNPEP2 (protein, UniProt O43895 22-649, looked up)
Xaa-Pro aminopeptidase 2: HTKPVDLGGQDVRNCSTNPPYLPVTVVNTTMSLTALRQQMQTQNLSAYIIPGTDAHMNEYIGQHDERRAWITGFTGSAGTAVVTMKKAAVWTDSRYWTQAERQMDCNWELHKEVGTTPIVTWLLTEIPAGGRVGFDPFLLSIDTWESYDLALQGSNRQLVSITTNLVDLVWGSERPPVPNQPIYALQEAFTGSTWQEKVSGVRSQMQKHQKVPTAVLLSALEETAWLFNLRASDIPYNPFFYSYTLLTDSSIRLFANKSRFSSETLSYLNSSCTGPMCVQIEDYSQVRDSIQAYSLGDVRIWIGTSYTMYGIYEMIPKEKLVTDTYSPVMMTKAVKNSKEQALLKASHVRDAVAVIRYLVWLEKNVPKGTVDEFSGAEIVDKFRGEEQFSSGPSFETISASGLNAALAHYSPTKELNRKLSSDEMYLLDSGGQYWDGTTDITRTVHWGTPSAFQKEAYTRVLIGNIDLSRLIFPAATSGRMVEAFARRALWDAGLNYGHGTGHGIGNFLCVHEWPVGFQSNNIAMAKGMFTSIEPGYYKDGEFGIRLEDVALVVEAKTKYPGSYLTFEVVSFVPYDRNLIDVSLLSPEHLQYLNRYYQTIREKVGPELQRRQLLEEFEWLQQHTEPLA

The molecules below were run on plasma proteins (assay: Plasma proteins modulated between baseline and day 28 in responders (CR, VGPR, PR; n = 19), Example 6 (Table 13)). Conditions: plasma protein (OLINK NPX); responders (CR, VGPR, PR; n = 19); itacitinib 200 mg or 300 mg QD with corticosteroids; day 28 vs baseline.
Type: in vivo, human
Method in brief: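 Longitudinal comparison, day 28 versus baseline, with steroid-naive (N=10) and steroid-refractory (N=18) patients combined. Proteins measured by OLINK proximity extension, log2 normalized protein expression. Differences tested by t tests, ANOVA, Pearson correlation, P<0.05 significant.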

Compared with B1, B2 is lower in “Fold Change, Increased Expression from Baseline to Day 28” value (from here on “Fold Change, Increased Expression”): 1.5485 for the first, 1.249 for the second.

Compared with B3, B7 is lower in “Fold Change, Increased Expression” value: 1.247 for the first, 1.12 for the second.

For B9, the “Fold Change, Increased Expression” value was 1.285.

Going from B4 to B5, the “Fold Change, Decreased Expression from Baseline to Day 28” value falls from −1.3807 to −1.6381.

Going from B6 to B8, the “Fold Change, Decreased Expression from Baseline to Day 28” value rises from −1.8117 to −1.4472.
